The text below walks through data of article PMC9214875.

Series [1] can be described thus: cycloheximide chase, Western blot, MHCC97H. The settings on record: glycan lost; control: wild type (G-MerTK).
Series [2] in a line: Blue Native PAGE, MHCC97H and HCCLM3. Particulars: glycan lost; control: wild type.
A short description of series [3]: nuclear/cytoplasmic fractionation, Western blot, LO2 and MHCC97H. Particulars: glycan lost; control: wild type. (In general: A western blot detects proteins with antibodies after separation by electrophoresis.)
Series [4] in a line: MG132 rescue of MerTK level, Western blot. The settings on record: glycan lost; control: no TM.
Series [5] in a line: nuclear/cytoplasmic fractionation, Western blot, MHCC97H. The settings on record: glycan lost; control: untreated.
A short description of series [6]: MerTK IP, anti-ubiquitin blot, MHCC97H and HCCLM3. Particulars: glycan lost; control: untreated.
The nature of series [7]: Blue Native PAGE, endogenous MerTK, MHCC97H. Particulars: glycan lost; control: untreated / with glucose.

B1: MerTK: N294Q (protein)
parent chain: MGPAPLPLLLGLFLPALWRRAITEAREEAKPYPLFPGPFPGSLQTDHTPLLSLPHASGYQPALMFSPTQPGRPHTGNVAIPQVTSVESKPLPPLAFKHTVGHIILSEHKGVKFNCSISVPNIYQDTTISWWKDGKELLGAHHAITQFYPDDEVTAIIASFSITSVQRSDNGSYICKMKINNEEIVSDPIYIEVQGLPHFTKQPESMNVTRNTAFNLTCQAVGPPEPVNIFWVQNSSRVNEQPEKSPSVLTVPGLTEMAVFSCEAHNDKGLTVSKGVQINIKAIPSPPTEVSIRNSTAHSILISWVPGFDGYSPFRNCSIQVKEADPLSNGSVMIFNTSALPHLYQIKQLQALANYSIGVSCMNEIGWSAVSPWILASTTEGAPSVAPLNVTVFLNESSDNVDIRWMKPPTKQQDGELVGYRISHVWQSAGISKELLEEVGQNGSRARISVQVHNATCTVRIAAVTRGGVGPFSDPVKIFIPAHGWVDYAPSSTPAPGNADPVLIIFGCFCGFILIGLILYISLAIRKRVQETKFGNAFTEEDSELVVNYIAKKSFCRRAIELTLHSLGVSEELQNKLEDVVIDRNLLILGKILGEGEFGSVMEGNLKQEDGTSLKVAVKTMKLDNSSQREIEEFLSEAACMKDFSHPNVIRLLGVCIEMSSQGIPKPMVILPFMKYGDLHTYLLYSRLETGPKHIPLQTLLKFMVDIALGMEYLSNRNFLHRDLAARNCMLRDDMTVCVADFGLSKKIYSGDYYRQGRIAKMPVKWIAIESLADRVYTSKSDVWAFGVTMWEIATRGMTPYPGVQNHEMYDYLLHGHRLKQPEDCLDELYEIMYSCWRTDPLDRPTFSVLRLQLEKLLESLPDVRNQADVIYVNTQLLESSEGLAQGSTLAPLDLNIDPDSIIASCTPRAAISVVTAEVHDSKPHEGRYILNGGSEEWEDLTSAPSAAVTAEKNSVLPGERLVRNGVSWSHSSMLPLGSSLPDELLFADDSSEGSEVLM
In the case of B1, in series [1], the degradation_or_half_life entry is “decreases”. In addition, in series [2], the oligomerisation entry is recorded as “decreases”. Besides, the localisation_or_trafficking entry in series [3] is on record as “increases”.

B2: MerTK: TM (protein)
parent chain: MGPAPLPLLLGLFLPALWRRAITEAREEAKPYPLFPGPFPGSLQTDHTPLLSLPHASGYQPALMFSPTQPGRPHTGNVAIPQVTSVESKPLPPLAFKHTVGHIILSEHKGVKFNCSISVPNIYQDTTISWWKDGKELLGAHHAITQFYPDDEVTAIIASFSITSVQRSDNGSYICKMKINNEEIVSDPIYIEVQGLPHFTKQPESMNVTRNTAFNLTCQAVGPPEPVNIFWVQNSSRVNEQPEKSPSVLTVPGLTEMAVFSCEAHNDKGLTVSKGVQINIKAIPSPPTEVSIRNSTAHSILISWVPGFDGYSPFRNCSIQVKEADPLSNGSVMIFNTSALPHLYQIKQLQALANYSIGVSCMNEIGWSAVSPWILASTTEGAPSVAPLNVTVFLNESSDNVDIRWMKPPTKQQDGELVGYRISHVWQSAGISKELLEEVGQNGSRARISVQVHNATCTVRIAAVTRGGVGPFSDPVKIFIPAHGWVDYAPSSTPAPGNADPVLIIFGCFCGFILIGLILYISLAIRKRVQETKFGNAFTEEDSELVVNYIAKKSFCRRAIELTLHSLGVSEELQNKLEDVVIDRNLLILGKILGEGEFGSVMEGNLKQEDGTSLKVAVKTMKLDNSSQREIEEFLSEAACMKDFSHPNVIRLLGVCIEMSSQGIPKPMVILPFMKYGDLHTYLLYSRLETGPKHIPLQTLLKFMVDIALGMEYLSNRNFLHRDLAARNCMLRDDMTVCVADFGLSKKIYSGDYYRQGRIAKMPVKWIAIESLADRVYTSKSDVWAFGVTMWEIATRGMTPYPGVQNHEMYDYLLHGHRLKQPEDCLDELYEIMYSCWRTDPLDRPTFSVLRLQLEKLLESLPDVRNQADVIYVNTQLLESSEGLAQGSTLAPLDLNIDPDSIIASCTPRAAISVVTAEVHDSKPHEGRYILNGGSEEWEDLTSAPSAAVTAEKNSVLPGERLVRNGVSWSHSSMLPLGSSLPDELLFADDSSEGSEVLM
As to B2, the degradation_or_half_life entry in series [4] is listed as “decreases”. The localisation_or_trafficking result in series [5] is reported as “increases”. For the same protein, the “other: ubiquitination” value in series [6] is reported as “increases”. Also, the oligomerisation entry in series [7] was “abolishes”.

B3: MerTK: N454Q (protein)
parent chain: MGPAPLPLLLGLFLPALWRRAITEAREEAKPYPLFPGPFPGSLQTDHTPLLSLPHASGYQPALMFSPTQPGRPHTGNVAIPQVTSVESKPLPPLAFKHTVGHIILSEHKGVKFNCSISVPNIYQDTTISWWKDGKELLGAHHAITQFYPDDEVTAIIASFSITSVQRSDNGSYICKMKINNEEIVSDPIYIEVQGLPHFTKQPESMNVTRNTAFNLTCQAVGPPEPVNIFWVQNSSRVNEQPEKSPSVLTVPGLTEMAVFSCEAHNDKGLTVSKGVQINIKAIPSPPTEVSIRNSTAHSILISWVPGFDGYSPFRNCSIQVKEADPLSNGSVMIFNTSALPHLYQIKQLQALANYSIGVSCMNEIGWSAVSPWILASTTEGAPSVAPLNVTVFLNESSDNVDIRWMKPPTKQQDGELVGYRISHVWQSAGISKELLEEVGQNGSRARISVQVHNATCTVRIAAVTRGGVGPFSDPVKIFIPAHGWVDYAPSSTPAPGNADPVLIIFGCFCGFILIGLILYISLAIRKRVQETKFGNAFTEEDSELVVNYIAKKSFCRRAIELTLHSLGVSEELQNKLEDVVIDRNLLILGKILGEGEFGSVMEGNLKQEDGTSLKVAVKTMKLDNSSQREIEEFLSEAACMKDFSHPNVIRLLGVCIEMSSQGIPKPMVILPFMKYGDLHTYLLYSRLETGPKHIPLQTLLKFMVDIALGMEYLSNRNFLHRDLAARNCMLRDDMTVCVADFGLSKKIYSGDYYRQGRIAKMPVKWIAIESLADRVYTSKSDVWAFGVTMWEIATRGMTPYPGVQNHEMYDYLLHGHRLKQPEDCLDELYEIMYSCWRTDPLDRPTFSVLRLQLEKLLESLPDVRNQADVIYVNTQLLESSEGLAQGSTLAPLDLNIDPDSIIASCTPRAAISVVTAEVHDSKPHEGRYILNGGSEEWEDLTSAPSAAVTAEKNSVLPGERLVRNGVSWSHSSMLPLGSSLPDELLFADDSSEGSEVLM
In the case of B3, the degradation_or_half_life entry in series [1] is recorded as “decreases”. Further, in series [2], the oligomerisation entry is reported as “decreases”. Further, the localisation_or_trafficking result in series [3] is given as “increases”.

B4: MerTK: glucose deprivation (protein)
parent chain: MGPAPLPLLLGLFLPALWRRAITEAREEAKPYPLFPGPFPGSLQTDHTPLLSLPHASGYQPALMFSPTQPGRPHTGNVAIPQVTSVESKPLPPLAFKHTVGHIILSEHKGVKFNCSISVPNIYQDTTISWWKDGKELLGAHHAITQFYPDDEVTAIIASFSITSVQRSDNGSYICKMKINNEEIVSDPIYIEVQGLPHFTKQPESMNVTRNTAFNLTCQAVGPPEPVNIFWVQNSSRVNEQPEKSPSVLTVPGLTEMAVFSCEAHNDKGLTVSKGVQINIKAIPSPPTEVSIRNSTAHSILISWVPGFDGYSPFRNCSIQVKEADPLSNGSVMIFNTSALPHLYQIKQLQALANYSIGVSCMNEIGWSAVSPWILASTTEGAPSVAPLNVTVFLNESSDNVDIRWMKPPTKQQDGELVGYRISHVWQSAGISKELLEEVGQNGSRARISVQVHNATCTVRIAAVTRGGVGPFSDPVKIFIPAHGWVDYAPSSTPAPGNADPVLIIFGCFCGFILIGLILYISLAIRKRVQETKFGNAFTEEDSELVVNYIAKKSFCRRAIELTLHSLGVSEELQNKLEDVVIDRNLLILGKILGEGEFGSVMEGNLKQEDGTSLKVAVKTMKLDNSSQREIEEFLSEAACMKDFSHPNVIRLLGVCIEMSSQGIPKPMVILPFMKYGDLHTYLLYSRLETGPKHIPLQTLLKFMVDIALGMEYLSNRNFLHRDLAARNCMLRDDMTVCVADFGLSKKIYSGDYYRQGRIAKMPVKWIAIESLADRVYTSKSDVWAFGVTMWEIATRGMTPYPGVQNHEMYDYLLHGHRLKQPEDCLDELYEIMYSCWRTDPLDRPTFSVLRLQLEKLLESLPDVRNQADVIYVNTQLLESSEGLAQGSTLAPLDLNIDPDSIIASCTPRAAISVVTAEVHDSKPHEGRYILNGGSEEWEDLTSAPSAAVTAEKNSVLPGERLVRNGVSWSHSSMLPLGSSLPDELLFADDSSEGSEVLM
In the case of B4, the oligomerisation result in series [7] was “abolishes”.
